Patent publication US20240059797A1 (GRITSTONE BIO, published 2024)
Changes are numbered by the printed parent chain. Values belong to the binder of their own block, whether it stands above or below them.

Legend:
[1] = molecular target: T1, HLA-A*02:01_… (HLA-PEPTIDE target G7), recombinant biotinylated complex (human, enzymatically biotinylated (BirA)); test: phage panning, scFv ELISA
Description: Phage library screening was carried out according to the overall screening design described above. Three to four rounds of bead-based panning were performed to identify scFv binders to each peptide-HLA complex. For each round of panning, an aliquot of starting phage was set aside for input titering and the remaining phage was depleted three times against Dynabead M-280 streptavidin beads (Life Technologies) followed by a depletion against Streptavidin beads pre-bound with 100 μmoles of pooled negative peptide-HLA complexes. For the first round of panning, 100 μmoles of peptide-HLA complex bound to streptavidin beads was incubated with depleted phage for 2 hours at room temperature with rotation. Three five-minute washes with 0.5% BSA in 1×PBST (PBS+0.05% Tween-20) followed by three five-minute washes with 0.5% BSA in 1×PBS were utilized to remove any unbound phage to the peptide-HLA complex bound beads. To elute the bound phage from the washed beads, 1 ml 0.1M TEA was added and incubated for 10 minutes at room temperature with rotation. The eluted phage was collected from the beads and neutralized with 0.5 ml 1M Tris-HCl pH 7.5. The neutralized phage was then used to infect log growth TG-1 cells (OD₆₀₀=0.5) and after an hour of infection at 37° C., cells were plated onto 2YT media with 100 μg/ml carbenicillin and 2% glucose (2YTCG) agar plates for output titer and bacterial growth for subsequent panning rounds.
96-well and/or 384-well streptavidin coated plates (Pierce) were coated with 2 μg/ml peptide-HLA complex in HLA buffer and incubated overnight at 4° C. Plates were washed three times between each step with PBST (PBS+0.05%). The antigen coated plates were blocked with 3% BSA in PBS (blocking buffer) for 1 hour at room temperature. After washing, scFv PPEs were added to the plates and incubated at room temperature for 1 hour. Following washing, mouse anti-v5 antibody (Invitrogen) in blocking buffer was added to detect scFv and incubated at room temperature for 1 hour. After washing, HRP-goat anti-mouse antibody (Jackson ImmunoResearch) was added and incubated at room temperature for 1 hour.

[2] = molecular target: T1, HLA-A*02:01_… (HLA-PEPTIDE target G7), …; test: BLI, pHLA on sensor, Fab titrated, 1:1 model
[3] = molecular target: HLA-A*02:01_… (HLA-PEPTIDE target G8), recombinant complex (human, enzymatically biotinylated (BirA) for screening and functional assays); test: BLI, pHLA on sensor, Fab titrated, 1:1 model
Description: (§1) Binding affinity was assessed by bio-layer interferometry (BLI) using an Octet Qke (ForteBio). Briefly, biotinylated pHLA complexes in kinetics buffer were loaded onto streptavidin sensors for 300 seconds, at concentrations which gave the optimal nm shift response (approximately 0.6 nm) for each Fab at the highest concentration used. The ligand-loaded tips were subsequently equilibrated in the kinetics buffer for 120 seconds. The ligand-loaded biosensors were then dipped for 200 seconds in the Fab solution titrated into 2-fold dilutions. […] The dissociation step in the kinetics buffer was measured for 200 seconds. Data were analyzed using the ForteBio data analysis software using a 1:1 binding model.

[4] = molecular target: HLA-A*01:01_… (HLA-PEPTIDE target G10), recombinant biotinylated complex (human, enzymatically biotinylated (BirA)); test: BLI, pHLA on sensor, Fab titrated, 1:1 model
Description: as §1

[5] = molecular target: T2, HLA-B*35:01_… (HLA-PEPTIDE target G5), recombinant biotinylated complex (human, enzymatically biotinylated (BirA)); test: scFv PPE ELISA
T2 construct: also called G5-pHLA

[6] = molecular target: T3, HLA-A*01:01_… (HLA-PEPTIDE target G2), recombinant biotinylated complex (human, enzymatically biotinylated (BirA)); test: BLI (ForteBio Octet HTX), biotinylated G2-pHLA captured on streptavidin SAX biosensor, bispecific in solution, 1:2 Fit
T3 construct: also called G2-pHLA

[7] = molecular target: T3, HLA-A*01:01_… (HLA-PEPTIDE target G2), …; test: BLI (ForteBio Octet HTX), biotinylated G2-pHLA captured on streptavidin SAX biosensor, bispecific in solution, 1:1 Fit
Excerpt: The biosensors were then dipped in assay buffer for a baseline. […] The biosensors were finally dipped into wells containing assay buffer to measure the dissociation rate for another 50 seconds. Referencing was completed by having a biosensor with no immobilized ligand dipped into analyte. Kinetic data was processed with Octet™ software using a 1:1 kinetic model with errors within 10%, X² below 3, and R² above 0.9.

B2: G7(1A03) Fab (Fab, V domains shown)
VH: QVQLVQSGAEVKKPGASVKVSCKASGYTFTSQYMHWVRQAPGQGLEWMGWISPNNGDTNYAQKFQGRVTMTRDTSTSTVYMELSSLRSEDTAVYYCARELGYYYGMDVWGQGTTVTVSS
VL: DIQMTQSPSSLSASVGDRVTITCRASQSISTWLAWYQQKPGKAPKLLIYYASSLQSGVPSRFSGSGSGTDFTLTISSLQPEDFATYYCQQSYSFPYTFGQGTKVEIK
notes: Fab
Kd [2]: 532 nM
koff [2]: 0.0994 s⁻¹
kon [2]: 197000 M⁻¹ s⁻¹

B3: G8(2C10) Fab (Fab, V domains shown)
VH: QVQLVQSGAEVKKPGASVKVSCKASGYTFTSYYMHWVRQAPGQGLEWMGWINPYSGGTNYAQKFQGRVTMTRDTSTSTVYMELSSLRSEDTAVYYCAKGGIYYGSGSYPSWGQGTLVTVSS
VL: B2 VL with S28D, I29V, Y50A, Y92H, F94T, Y96Q
notes: Fab
Kd [3]: 17.7 nM
koff [3]: 0.0013 s⁻¹
kon [3]: 75000 M⁻¹ s⁻¹

B7: G5(3G05) scFv (scFv, V domains shown)
VH: QVQLVQSGAEVKKPGASVKVSCKASGYTFTNYYMHWVRQAPGQGLEWMGIINPSGGSTSYAQKFQGRVTMTRDTSTSTVYMELSSLRSEDTAVYYCARSWFGGFNYHYYGMDVWGQGTTVTVSS
VL: DIQMTQSPSSLSASVGDRVTITCQASEDISNHLNWYQQKPGKAPKLLIYDALSLQSGVPSRFSGSGSGTDFTLTISSLQPEDFATYYCQQANSFPFTFGPGTKVDIK
fold selective binding to target pHLA over minipool of negative control pHLAs [5]: ≥ 3 fold

B8: 4-G2(1H11)-10AAL hOKT3a (bispecific antibody)
chain: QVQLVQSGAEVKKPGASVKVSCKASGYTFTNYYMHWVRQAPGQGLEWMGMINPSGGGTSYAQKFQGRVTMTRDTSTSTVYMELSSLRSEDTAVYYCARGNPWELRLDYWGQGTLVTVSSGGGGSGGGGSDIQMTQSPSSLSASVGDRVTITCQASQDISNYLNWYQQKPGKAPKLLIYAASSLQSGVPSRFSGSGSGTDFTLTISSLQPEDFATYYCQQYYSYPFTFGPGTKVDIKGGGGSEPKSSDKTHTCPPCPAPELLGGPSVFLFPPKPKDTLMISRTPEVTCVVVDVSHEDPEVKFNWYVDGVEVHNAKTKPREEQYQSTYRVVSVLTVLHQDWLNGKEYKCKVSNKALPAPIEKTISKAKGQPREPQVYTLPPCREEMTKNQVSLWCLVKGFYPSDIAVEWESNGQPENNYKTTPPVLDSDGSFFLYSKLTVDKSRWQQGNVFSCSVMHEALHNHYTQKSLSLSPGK
heavy: QVQLVQSGAEVKKPGASVKVSCKASGYTFTNYYMHWVRQAPGQGLEWMGMINPSGGGTSYAQKFQGRVTMTRDTSTSTVYMELSSLRSEDTAVYYCARGNPWELRLDYWGQGTLVTVSSGGGGSGGGGSDIQMTQSPSSLSASVGDRVTITCQASQDISNYLNWYQQKPGKAPKLLIYAASSLQSGVPSRFSGSGSGTDFTLTISSLQPEDFATYYCQQYYSYPFTFGPGTKVDIKGGGGSGGGGSQVQLVQSGAEVKKPGASVKVSCKASGYTFTRYTMHWVRQAPGQGLEWMGYINPSRGYTNYNQKFKDRVTLTTDKSSSTAYMELSSLRSEDTAVYYCARYYDDHYSLDYWGQGTLVTVSSASTKGPSVFPLAPSSKSTSGGTAALGCLVKDYFPEPVTVSWNSGALTSGVHTFPAVLQSSGLYSLSSVVTVPSSSLGTQTYICNVNHKPSNTKVDKRVEPKSCDKTHTCPPCPAPELLGGPSVFLFPPKPKDTLMISRTPEVTCVVVDVSHEDPEVKFNWYVDGVEVHNAKTKPREEQYQSTYRVVSVLTVLHQDWLNGKEYKCKVSNKALPAPIEKTISKAKGQPREPQVCTLPPSREEMTKNQVSLSCAVKGFYPSDIAVEWESNGQPENNYKTTPPVLDSDGSFFLVSKLTVDKSRWQQGNVFSCSVMHEALHNRFTQKSLSLSPGK
light: DIQMTQSPSSLSASVGDRVTITCSASSSVSYMNWYQQKPGKAPKRLIYDTSKLASGVPSRFSGSGSGTDFTLTISSLQPEDFATYYCQQWSSNPFTFGQGTKLEIKRTVAAPSVFIFPPSDEQLKSGTASVVCLLNNFYPREAKVQWKVDNALQSGNSQESVTEQDSKDSTYSLSSTLTLSKADYEKHKVYACEVTHQGLSSPVTKSFNRGEC
notes: format 4 diabody; also called G2(1H11)-hOKT3a Format 4 with shortened linkers; DAB
Kd [6]: 301 nM
koff [6]: 0.0746 s⁻¹
kon [6]: 248000 M⁻¹ s⁻¹
Kd [7]: 6.35 nM
koff [7]: 0.00608 s⁻¹
kon [7]: 958000 M⁻¹ s⁻¹

B10: G5(2B10) scFv (scFv, V domains shown)
VH: QVQLVQSGAEVKKPGASVKVSCKASGGTFSSYAISWVRQAPGQGLEWMGWMNPDSGSTGYAQRFQGRVTMTRDTSTSTVYMELSSLRSEDTAVYYCARGHSSGWYYYYGMDVWGQGTTVTVSS
VL: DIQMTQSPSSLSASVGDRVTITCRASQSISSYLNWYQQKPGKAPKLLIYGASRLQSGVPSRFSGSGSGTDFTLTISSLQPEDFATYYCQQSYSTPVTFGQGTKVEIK
fold selective binding to target pHLA over minipool of negative control pHLAs [5]: ≥ 3 fold

B14: G7(2C02) Fab (Fab, V domains shown)
VH: QVQLVQSGAEVKKPGASMKVSCKASGYTFTTDGISWVRQAPGQGLEWMGRIYPHSGYTEYAKKFKGRVTMTRDTSTSTVYMELSSLRSEDTAVYYCARQDGGAFAFDIWGQGTMVTVSS
VL: DIQMTQSPSSLSASVGDRVTITCQASQDIFKYLNWYQQKPGKAPKLLIYAASTLQSGVPSRFSGSGSGTDFTLTISSLQPEDFATYYCQQSYSTPPTFGQGTRLEIK
notes: Fab
Kd [2]: 531 nM
koff [2]: 0.0543 s⁻¹
kon [2]: 104000 M⁻¹ s⁻¹

B15: G8(1C11) Fab (Fab, V domains shown)
VH: QVQLVQSGAEVKKPGASVKVSCKASGGTLSSYPINWVRQAPGQGLEWMGWISTYSGHADYAQKLQGRVTMTRDTSTSTVYMELSSLRSEDTAVYYCARSYDYGDYLNFDYWGQGTLVTVSS
VL: B14 VL with F30S, K31N, T53S, T94I, Q100G, R103K, L104V, E105D
notes: Fab; also called G8-P1C11
Kd [3]: 178 nM
koff [3]: 0.0338 s⁻¹
kon [3]: 190000 M⁻¹ s⁻¹

B16: G5(4B01) scFv (scFv, V domains shown)
VH: QVQLVQSGAEVKKPGSSVKVSCKASGGTFSSYAISWVRQAPGQGLEWMGGIIPIVGTANYAQKFQGRVTITADESTSTAYMELSSLRSEDTAVYYCARGGSYYYYGMDVWGQGTTVTVSS
VL: not shown
fold selective binding to target pHLA over minipool of negative control pHLAs [5]: ≥ 3 fold

B17: G7(2E09) Fab (Fab, V domains shown)
VH: QVQLVQSGAEVKKPGSSVKVSCKASRYTFTSYDINWVRQAPGQGLEWMGRIIPMLNIANYAPKFQGRVTITADESTSTAYMELSSLRSEDTAVYYCARALIFGVPLLPYGMDVWGQGTTVTVSS
VL: not shown
notes: Fab
Kd [2]: 11.8 nM
koff [2]: 0.00212 s⁻¹
kon [2]: 185000 M⁻¹ s⁻¹

Continued, values first:

binding result [1]: binds
B1: G7(3A09) scFv (scFv, V domains shown)
VH: QVQLVQSGAEVKKPGSSVKVSCKASGDTFNTYALSWVRQAPGQGLEWMGWMNPNSGNAGYAQKFQGRVTITADESTSTAYMELSSLRSEDTAVYYCARLWFGELHYYYYYGMDVWGQGTMVTVSS
VL: not shown

Kd [3]: 286 nM
koff [3]: 0.0789 s⁻¹
kon [3]: 545000 M⁻¹ s⁻¹
B4: G8(2E04) Fab (Fab, V domains shown)
VH: QVQLVQSGAEVKKPGSSVKVSCKASGGTFSSYGVSWVRQAPGQGLEWMGWISPYSGNTDYAQKFQGRVTITADESTSTAYMELSSLRSEDTAVYYCARGLYYMDVWGKGTTVTVSS
VL: B2 VL with T31S, Y50D, S53N, Q55E, S56T, F94T, Y96L, Q100G, V104L
notes: Fab

binding result [1]: binds
B5: G7(1G10) scFv (scFv, V domains shown)
VH: EVQLLESGGGLVQPGGSLRLSCAASGFTFSSYAMHWVRQAPGKGLEWVSGISGSGGSTYYADSVKGRFTISRDNSKNTLYLQMNSLRAEDTAVYYCASDYGDYRGQGTLVTVSS
VL: B2 VL with S28D, S30R, T31N, W32D, A34G, Y50A, S91A, Y92N, S93A, Y96P

Kd [4]: 37.5 nM
koff [4]: 0.00615 s⁻¹
kon [4]: 165000 M⁻¹ s⁻¹
B6: G10(1B07) Fab (Fab, V domains shown)
VH: QVQLVQSGAEVKKPGASVKVSCKASGYTFTSYYMHWVRQAPGQGLEWMGIIHPGGGTTSYAQKFQGRVTMTRDTSTSTVYMELSSLRSEDTAVYYCARDKVYGDGFDPWGQGTLVTVSS
VL: B2 VL with T31R, Y49F, Y50D, S53R, S91A, Y92E, S93A
notes: Fab

binding result [1]: binds
B9: G7(1B04) scFv (scFv, V domains shown)
VH: QVQLVQSGAEVKKPGASVKVSCKASGYTFSNYYIHWVRQAPGQGLEWMGWLNPNSGNTGYAQRFQGRVTMTRDTSTSTVYMELSSLRSEDTAVYYCARDLMTTVVTPGDYGMDVWGQGTTVTVSS
VL: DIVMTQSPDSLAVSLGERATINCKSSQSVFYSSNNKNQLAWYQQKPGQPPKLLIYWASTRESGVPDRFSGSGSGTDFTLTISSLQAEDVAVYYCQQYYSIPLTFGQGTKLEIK

Kd [4]: 428 nM
koff [4]: 0.111 s⁻¹
kon [4]: 477000 M⁻¹ s⁻¹
B11: G10(4E07) Fab (Fab, V domains shown)
VH: QVQLVQSGAEVKKPGSSVKVSCKASGYTFTGYYMHWVRQAPGQGLEWMGRISPSDGSTTYAPKFQGRVTITADESTSTAYMELSSLRSEDTAVYYCARDMGDAFDIWGQGTTVTVSS
VL: not shown
notes: Fab

binding result [1]: binds
B12: G7(1C06) scFv (scFv, V domains shown)
VH: QVQLVQSGAEVKKPGASVKVSCKASGGTFSNYGISWVRQAPGQGLEWMGIINPGGSTSYAQKFQGRVTMTRDTSTSTVYMELSSLRSEDTAVYYCARDGYDFWSGYTSDDYWGQGTLVTVSS
VL: EIVMTQSPATLSVSPGERATLSCRASQSVSSSNLAWYQQKPGQAPRLLIYGASTRATGIPARFSGSGSGTEFTLTISSLQSEDFAVYYCHHYGRSHTFGQGTKVEIK

binding result [1]: binds
B13: G7(1F08) scFv (scFv, V domains shown)
VH: EVQLLQSGGGLVQPGGSLRLSCAASGFTFSSSWMHWVRQAPGKGLEWVSFISTSSGYIYYADSVKGRFTISRDNSKNTLYLQMNSLRAEDTAVYYCAKDLATVGEPYYYYGMDVWGQGTTVTVSS
VL: DIQMTQSPSSLSASVGDRVTITCQASQDISNYLNWYQQKPGKAPKLLIYSASNLRSGVPSRFSGSGSGTDFTLTISSLQPEDFATYYCQQGNTFPLTFGQGTKVEIK
